Target: human CD8α/β (human), P01732
Test: ELISA on CD8αβ

human CD8α/β (human), P01732, sequence (P01732 22-182, chain 1 of 2): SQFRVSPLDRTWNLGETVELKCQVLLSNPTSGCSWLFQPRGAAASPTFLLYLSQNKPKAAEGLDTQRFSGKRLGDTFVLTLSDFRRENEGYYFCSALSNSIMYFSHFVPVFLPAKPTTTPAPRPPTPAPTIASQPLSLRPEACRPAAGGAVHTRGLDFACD
human CD8α/β (human), P01732, sequence (P10966 22-170, chain 2 of 2, further chain): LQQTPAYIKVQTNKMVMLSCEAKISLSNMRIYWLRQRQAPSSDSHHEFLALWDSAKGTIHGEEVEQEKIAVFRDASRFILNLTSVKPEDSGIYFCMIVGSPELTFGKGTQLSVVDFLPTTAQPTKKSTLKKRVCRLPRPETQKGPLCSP

EC50: 6 µM
Binder: KHYTN (modifications not checked) [khytn (SEQ ID NO:82)]

— US20200291391A1, “CROSS-LINKED EPITOPES AND METHODS OF USE THEREOF” (Indi Molecular, Inc., priority 2019, published 2020)
